According to patent US20190324032A1 (University of California, published 2019):

Key:
[1] = molecular target: T1, CLOCK PAS-B domain (residues 261-395) site-specifically labeled with FAM at its N-terminus (human, UniProt O15516 261-395, FAM (fluorescein) at the N-terminus, attached with Sortase A from FAM-LPETGG onto the N-terminal glycine); assay: fluorescence polarization
T1 construct: Sortase ligation leaves residues of the FAM-LPETGG peptide in front of the N-terminal glycine; also called labeled CLOCK PAS-B; CLOCK PAS-B probe
T1 sequence: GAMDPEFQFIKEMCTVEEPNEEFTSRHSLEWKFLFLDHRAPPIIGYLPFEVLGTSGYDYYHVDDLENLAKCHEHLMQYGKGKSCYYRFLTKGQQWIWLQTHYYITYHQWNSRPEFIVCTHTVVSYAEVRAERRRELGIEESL

[2] = molecular target: T2, His6-tagged mouse CRY1 PHR (photolyase homology region, amino acids 1-491) (mouse, UniProt P97784 1-491); assay: SEC of CRY1 PHR with preformed CLOCK:BMAL1 PAS-B dimer
T2 construct: Expressed in Sf9 cells; also called wild-type CRY1 PHR; not shown: N-terminal His6 tag / vector residues
T2 sequence: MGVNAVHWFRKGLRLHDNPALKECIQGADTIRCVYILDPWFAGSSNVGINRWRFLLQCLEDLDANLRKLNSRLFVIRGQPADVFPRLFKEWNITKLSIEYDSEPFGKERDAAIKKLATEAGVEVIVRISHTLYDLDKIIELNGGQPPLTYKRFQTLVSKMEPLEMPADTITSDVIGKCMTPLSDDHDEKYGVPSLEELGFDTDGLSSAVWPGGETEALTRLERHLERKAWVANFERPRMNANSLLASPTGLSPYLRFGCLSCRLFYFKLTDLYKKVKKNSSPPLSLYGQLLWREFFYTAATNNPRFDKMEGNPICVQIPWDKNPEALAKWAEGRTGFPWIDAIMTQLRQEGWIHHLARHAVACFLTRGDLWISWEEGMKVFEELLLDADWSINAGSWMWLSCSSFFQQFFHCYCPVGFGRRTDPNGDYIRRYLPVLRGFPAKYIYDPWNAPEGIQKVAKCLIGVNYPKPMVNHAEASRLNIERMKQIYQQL
Description: (§1) For analysis of complex formation by size-exclusion chromatography (SEC), purified proteins were injected on a Superdex 200 10/300 GL or Superdex 75 10/300 GL analytical column at 10-50 μM (˜250 μL, 1:1 molar ratio) in 20 mM HEPES pH 7.5, 125 mM NaCl, 5% glycerol and 2 mM TCEP. Proteins were incubated for ˜30 min. or overnight and analyzed by SEC. All size-exclusion columns were calibrated with a low-molecular-weight gel filtration standards kit (GE Healthcare Life Sciences). The content of each peak was evaluated by SDS-PAGE and Coomassie staining.

CRY1 PHR R109Q = molecular target: T3, CRY1 PHR R109Q (mouse, UniProt P97784 1-491); assay: size exclusion chromatography
T3 construct: also called CRY1 PHR R109Q mutant; not shown: N-terminal His6 tag / vector residues
T3 sequence: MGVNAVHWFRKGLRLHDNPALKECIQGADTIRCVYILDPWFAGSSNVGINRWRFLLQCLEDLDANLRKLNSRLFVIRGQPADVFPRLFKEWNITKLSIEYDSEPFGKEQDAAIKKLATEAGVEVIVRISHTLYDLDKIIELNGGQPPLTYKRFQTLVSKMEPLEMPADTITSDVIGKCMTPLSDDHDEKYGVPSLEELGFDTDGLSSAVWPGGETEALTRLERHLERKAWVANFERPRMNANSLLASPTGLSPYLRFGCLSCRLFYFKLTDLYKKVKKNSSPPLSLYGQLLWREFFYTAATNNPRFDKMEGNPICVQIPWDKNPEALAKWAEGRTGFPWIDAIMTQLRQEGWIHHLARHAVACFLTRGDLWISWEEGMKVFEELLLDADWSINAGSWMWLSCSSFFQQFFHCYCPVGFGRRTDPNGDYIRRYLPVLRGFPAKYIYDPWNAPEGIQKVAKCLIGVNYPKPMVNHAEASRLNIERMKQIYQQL
Description: as §1

CRY1 PHR P39A = molecular target: T4, CRY1 PHR P39A (mouse, UniProt P97784 1-491); assay: size exclusion chromatography
T4 construct: also called CRY1 PHR P39A mutant; not shown: N-terminal His6 tag / vector residues
T4 sequence: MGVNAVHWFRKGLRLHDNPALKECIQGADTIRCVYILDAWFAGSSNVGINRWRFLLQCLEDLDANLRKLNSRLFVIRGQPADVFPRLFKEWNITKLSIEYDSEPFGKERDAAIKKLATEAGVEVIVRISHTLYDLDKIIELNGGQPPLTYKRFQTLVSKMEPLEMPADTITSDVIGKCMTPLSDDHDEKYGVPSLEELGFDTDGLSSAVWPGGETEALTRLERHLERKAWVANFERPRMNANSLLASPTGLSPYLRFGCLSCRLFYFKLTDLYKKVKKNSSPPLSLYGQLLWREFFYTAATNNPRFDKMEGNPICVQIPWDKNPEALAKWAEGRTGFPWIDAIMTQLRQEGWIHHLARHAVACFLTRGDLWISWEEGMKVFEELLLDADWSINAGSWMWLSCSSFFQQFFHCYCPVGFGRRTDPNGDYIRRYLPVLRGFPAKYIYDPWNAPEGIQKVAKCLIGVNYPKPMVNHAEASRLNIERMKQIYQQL
Description: as §1

[3] = molecular target: T2, His6-tagged mouse CRY1 PHR (photolyase …); assay: GST pull-down
Description: Soluble proteins were purified using GS4B resin (GE Healthcare). GST-tagged proteins were eluted with 10 mM glutathione and peak elution was desalted into 20 mM HEPES pH 7.5, 125 mM NaCl, 5% glycerol and 2 mM TCEP. […] After rotation at 4° C. overnight, reactions were washed 3 times with the above buffer and eluted with 6× SDS. Samples were boiled for ˜5 min. and loaded on an SDS-PAGE gel for visualization by Coomassie stain.

[4] = molecular target: mouse BMAL1 PAS-B (residues 329-441) (mouse, UniProt Q9WTL8 329-441); assay: size exclusion chromatography on Superdex 75
Chain of mouse BMAL1 PAS-B (residues 329-441) (Q9WTL8 329-441): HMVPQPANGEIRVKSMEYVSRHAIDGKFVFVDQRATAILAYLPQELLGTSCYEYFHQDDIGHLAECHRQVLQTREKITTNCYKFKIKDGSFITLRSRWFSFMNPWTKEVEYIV
Description: as §1

[5] = molecular target: T2, His6-tagged mouse CRY1 PHR (photolyase …); assay: size exclusion chromatography
Description: as §1

B1: CRY1 PHR (residues 1-491) after cleavage of the His6 tag, with residual vector sequence (Example 6) (other)
chain: GAMDPEFMGVNAVHWFRKGLRLHDNPALKECIQGADTIRCVYILDPWFAGSSNVGINRWRFLLQCLEDLDANLRKLNSRLFVIRGQPADVFPRLFKEWNITKLSIEYDSEPFGKERDAAIKKLATEAGVEVIVRISHTLYDLDKIIELNGGQPPLTYKRFQTLVSKMEPLEMPADTITSDVIGKCMTPLSDDHDEKYGVPSLEELGFDTDGLSSAVWPGGETEALTRLERHLERKAWVANFERPRMNANSLLASPTGLSPYLRFGCLSCRLFYFKLTDLYKKVKKNSSPPLSLYGQLLWREFFYTAATNNPRFDKMEGNPICVQIPWDKNPEALAKWAEGRTGFPWIDAIMTQLRQEGWIHHLARHAVACFLTRGDLWISWEEGMKVFEELLLDADWSINAGSWMWLSCSSFFQQFFHCYCPVGFGRRTDPNGDYIRRYLPVLRGFPAKYIYDPWNAPEGIQKVAKCLIGVNYPKPMVNHAEASRLNIERMKQIYQQL
B1: binds [1].

B2: mouse CLOCK PAS-B (residues 261-395) (other)
chain: QFIKEMCTVEEPNEEFTSRHSLEWKFLFLDHRAPPIIGYLPFEVLGTSGYDYYHVDDLENLAKCHEHLMQYGKGKSCYYRFLTKGQQWIWLQTHYYITYHQWNSRPEFIVCTHTVVSYAEVRAERRRELGIEESL
notes: also called CLOCK PAS-B domain; CLOCK PAS-B WT
B2: binds [2]; no binding (tested: 10-50 µM, 1:1 molar ratio) (CRY1 PHR R109Q); no binding (tested: 10-50 µM, 1:1 molar ratio) (CRY1 PHR P39A).

B3: GST-CLOCK PAS-B W362A (other, not shown: a dimerising Fc or GST; small tags and cut ends)
chain: QFIKEMCTVEEPNEEFTSRHSLEWKFLFLDHRAPPIIGYLPFEVLGTSGYDYYHVDDLENLAKCHEHLMQYGKGKSCYYRFLTKGQQWIWLQTHYYITYHQANSRPEFIVCTHTVVSYAEVRAERRRELGIEESL
B3: no binding [3].

B4: CLOCK PAS-B V315R (other)
chain: QFIKEMCTVEEPNEEFTSRHSLEWKFLFLDHRAPPIIGYLPFEVLGTSGYDYYHRDDLENLAKCHEHLMQYGKGKSCYYRFLTKGQQWIWLQTHYYITYHQWNSRPEFIVCTHTVVSYAEVRAERRRELGIEESL
notes: also called CLOCK PAS-B V315R mutant
B4: no binding (tested: incubated 1:1) [4].

B5: CLOCK PAS-B H360Y (other)
chain: QFIKEMCTVEEPNEEFTSRHSLEWKFLFLDHRAPPIIGYLPFEVLGTSGYDYYHVDDLENLAKCHEHLMQYGKGKSCYYRFLTKGQQWIWLQTHYYITYYQWNSRPEFIVCTHTVVSYAEVRAERRRELGIEESL
notes: also called CLOCK PAS-B H360Y mutant
B5: no binding (tested: 10-50 µM, 1:1 molar ratio) [5].
